Assay results as given in patent US20080194522A1, “Development of Fluorogenic Substrates For Monoamine Oxidases (Mao-A and Mao-B)” (priority 2004, published 2008).
Read-outs that look alike come from different tables or passages of the source.

Substrate: NCCc1cc2oc(=O)ccc2cc1N
Assay: purified protein, by the assay type

Protein	Km	Km (pH 7.4)
MAO-B (Bos taurus) (protein) MSSKCDVVVVGGGISGMAAAKLLHDSGLNVIVLEARDRVGGRTYTLRNQKVKYVDLGGSYVGPTQNHILRLSKELGLETYKVNEVERLIHHTKGKSYPFRGSFPSVWNPITYLDHNNLWRTMDDMGREIPSDAPWKAPLAEQWDLMTMKELLDKICWTESSKQLAILFVNLCVTAEIHEVSALWFLWYVKQCGGTTRIFSTSNGGQERKFVGGSGQVSERIMDLLGDRVKLERPVIHIDQTGENVLVETLNHELYEAKYVISAVPPVLGMKIHFNPPLPMMRNQLITRVPLGSVIKSIVYYKEPFWRNMDYCGSMIIEGEEAPVAYALDDTKPDGSYPAIIGFILAHKARKLARLTKEERLKKLCDLYAKVLGSQEALHPVHYEEKNWCEEQYSGGCYTSYFPPGIMTQYGRVLRQPVGRIYFAGTETATHWSGYMEGAVEAGERAAREILHAMGKIPEDEIWLPEPESVDVPAKPITTTFLQRHLPSVPGLLKLIGLTTIFSATALGFLAHKRGLLVRI	510 ± 40 µM	13 µM
MAO-A (Homo sapiens) (protein) MENQEKASIAGHMFDVVVIGGGISGLSAAKLLTEYGVSVLVLEARDRVGGRTYTIRNEHVDYVDVGGAYVGPTQNRILRLSKELGIETYKVNVSERLVQYVKGKTYPFRGAFPPVWNPIAYLDYNNLWRTIDNMGKEIPTDAPWEAQHADKWDKMTMKELIDKICWTKTARRFAYLFVNINVTSEPHEVSALWFLWYVKQCGGTTRIFSVTNGGQERKFVGGSGQVSERIMDLLGDQVKLNHPVTHVDQSSDNIIIETLNHEHYECKYVINAIPPTLTAKIHFRPELPAERNQLIQRLPMGAVIKCMMYYKEAFWKKKDYCGCMIIEDEDAPISITLDDTKPDGSLPAIMGFILARKADRLAKLHKEIRKKKICELYAKVLGSQEALHPVHYEEKNWCEEQYSGGCYTAYFPPGIMTQYGRVIRQPVGRIFFAGTETATKWSGYMEGAVEAGERAAREVLNGLGKVTEKDIWVQEPESKDVPAVEITHTFWERNLPSVSGLLKIIGFSTSVTALGFVLYKYKLLPRS	30.9 ± 1.8 µM	31 µM
